This test deals with T1, B42-NIF-1 (full-length), B42 activation domain fusion expressed from pJG4-5 in yeast (human, UniProt Q9H4Z2 1-1342).
T1 construct: also called NIF-1 expressed as a B42-fusion
T1 sequence: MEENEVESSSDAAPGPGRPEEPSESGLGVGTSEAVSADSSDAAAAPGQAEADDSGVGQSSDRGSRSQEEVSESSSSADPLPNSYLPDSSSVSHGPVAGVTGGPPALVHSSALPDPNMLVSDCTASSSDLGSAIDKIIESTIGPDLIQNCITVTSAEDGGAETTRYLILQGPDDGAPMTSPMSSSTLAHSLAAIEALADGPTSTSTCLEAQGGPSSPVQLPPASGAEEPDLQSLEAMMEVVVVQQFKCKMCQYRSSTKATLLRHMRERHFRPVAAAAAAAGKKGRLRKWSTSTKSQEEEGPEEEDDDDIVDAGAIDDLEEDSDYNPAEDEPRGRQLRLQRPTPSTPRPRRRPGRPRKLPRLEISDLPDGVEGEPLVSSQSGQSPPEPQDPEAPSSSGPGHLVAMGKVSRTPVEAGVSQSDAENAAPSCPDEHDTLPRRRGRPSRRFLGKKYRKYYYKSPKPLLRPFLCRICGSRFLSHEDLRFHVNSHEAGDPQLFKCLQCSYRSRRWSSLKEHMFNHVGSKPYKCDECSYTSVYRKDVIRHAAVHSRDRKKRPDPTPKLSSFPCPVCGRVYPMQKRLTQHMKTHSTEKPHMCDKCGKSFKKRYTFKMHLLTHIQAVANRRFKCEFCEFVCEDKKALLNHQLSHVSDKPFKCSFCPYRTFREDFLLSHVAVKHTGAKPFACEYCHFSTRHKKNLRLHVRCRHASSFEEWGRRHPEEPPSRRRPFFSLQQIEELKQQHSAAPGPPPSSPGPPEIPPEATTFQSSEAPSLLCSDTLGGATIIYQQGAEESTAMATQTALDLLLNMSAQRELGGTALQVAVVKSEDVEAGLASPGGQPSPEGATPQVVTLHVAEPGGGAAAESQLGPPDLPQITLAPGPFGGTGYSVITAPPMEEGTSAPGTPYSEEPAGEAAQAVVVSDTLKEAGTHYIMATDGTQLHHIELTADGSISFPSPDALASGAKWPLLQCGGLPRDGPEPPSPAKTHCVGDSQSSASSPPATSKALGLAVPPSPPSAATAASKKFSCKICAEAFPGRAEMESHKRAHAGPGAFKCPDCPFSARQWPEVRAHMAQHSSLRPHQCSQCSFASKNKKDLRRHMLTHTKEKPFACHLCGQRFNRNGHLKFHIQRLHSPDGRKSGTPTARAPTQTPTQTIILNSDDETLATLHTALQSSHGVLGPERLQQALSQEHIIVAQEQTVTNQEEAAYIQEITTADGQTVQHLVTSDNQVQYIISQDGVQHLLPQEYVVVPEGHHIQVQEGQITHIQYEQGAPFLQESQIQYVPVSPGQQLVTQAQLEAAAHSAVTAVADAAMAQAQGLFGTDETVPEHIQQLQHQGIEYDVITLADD
Put plainly: yeast two-hybrid, B42-NIF-1 (full-length) against LexA-LBD, β-galactosidase. As to the method: To examine for this possibility, the interaction of B42-NIF-1 (full-length), conditionally expressed from pJG4-5, was studied with LexA fusions of nuclear receptor LBDs (cTRα, ERa, RXRα, GR, RARα, and PPARα) in yeast, as shown in FIG. 7. In addition, a LexA-fusion of full-length cTRα was also tested against B42-NIF-1 (full-length) and gave similar results as with the cTRα LBD. […] To document that the LexA-LBD fusions were expressed and responded to ligand in yeast, similar studies were carried out with B42-NRC.

B1: LexA-cTRα LBD (LexA fusion of the ligand binding domain of cTRα) (receptor, UniProt P0A7C2 1-202, looked up)
chain: MKALTARQQEVFDLIRDHISQTGMPPTRAEIAQRLGFRSPNAAEEHLKALARKGVIEIVSGASRGIRLLQEEEEGLPLVGRVAAGEPLLAQQHIEGHYQVDPSLFKPNADFLLRVSGMSMKDIGIMDGDLLAVHKTQDVRNGQVVVARIDDEVTVKRLKKQGNKVELLPENSEFKPIVVDLRQQSFTIEGLAVGVIRNGDWLMDLVLDDSKRVAKRKLIEENRERRRKEEMIKSLQHRPSPSAEEWELIHVVTEAHRSTNAQGSHWKQKRKFLPEDIGQSPMASMPDGDKVDLEAFSEFTKIITPAITRVVDFAKKLPMFSELPCEDQIILLKGCCMEIMSLRAAVRYDPESETLTLSGEMAVKREQLKNGGLGVVSDAIFDLGKSLSAFNLDDTEVALLQAVLLMSSDRTGLICVDKIEKCQETYLLAFEHYINYRKHNIPHFWPKLLMKVTDLRMIGACHASRFLHMKVECPTELFPPLFLEVFEDQEV
notes: domain: LexA DBD;domain: LBD; also called cTRa
Regarding B1, the binding result is reported as “no binding”.

B2: LexA-hPPARα LBD (LexA fusion of the ligand binding domain of hPPARα) (receptor, UniProt P0A7C2 1-202, looked up)
chain: MKALTARQQEVFDLIRDHISQTGMPPTRAEIAQRLGFRSPNAAEEHLKALARKGVIEIVSGASRGIRLLQEEEEGLPLVGRVAAGEPLLAQQHIEGHYQVDPSLFKPNADFLLRVSGMSMKDIGIMDGDLLAVHKTQDVRNGQVVVARIDDEVTVKRLKKQGNKVELLPENSEFKPIVVDLRQQSFTIEGLAVGVIRNGDWLSHNAIRFGRMPRSEKAKLKAEILTCEHDIEDSETADLKSLAKRIYEAYLKNFNMNKVKARVILSGKASNNPPFVIHDMETLCMAEKTLVAKLVANGIQNKEAEVRIFHCCQCTSVETVTELTEFAKAIPGFANLDLNDQVTLLKYGVYEAIFAMLSSVMNKDGMLVAYGNGFITREFLKSLRKPFCDIMEPKFDFAMKFNALELDDSDISLFVAAIICCGDRPGLLNVGHIEKMQEGIVHVLRLHLQSNHPDDIFLFPKLLQKMADLRQLVTEHAQLVQIIKKTESDAALHPLLQEIYRDMY
notes: domain: LexA DBD;domain: LBD
On to B2, for which the binding result was “no binding”.

B3: LexA-hRARα LBD (LexA fusion of the ligand binding domain of hRARα) (receptor, UniProt P0A7C2 1-202, looked up)
chain: MKALTARQQEVFDLIRDHISQTGMPPTRAEIAQRLGFRSPNAAEEHLKALARKGVIEIVSGASRGIRLLQEEEEGLPLVGRVAAGEPLLAQQHIEGHYQVDPSLFKPNADFLLRVSGMSMKDIGIMDGDLLAVHKTQDVRNGQVVVARIDDEVTVKRLKKQGNKVELLPENSEFKPIVVDLRQQSFTIEGLAVGVIRNGDWLSKESVRNDRNKKKKEVPKPECSESYTLTPEVGELIEKVRKAHQETFPALCQLGKYTTNNSSEQRVSLDIDLWDKFSELSTKCIIKTVEFAKQLPGFTTLTIADQITLLKAACLDILILRICTRYTPEQDTMTFSDGLTLNRTQMHNAGFGPLTDLVFAFANQLLPLEMDDAETGLLSAICLICGDRQDLEQPDRVDMLQEPLLEALKVYVRKRRPSRPHMFPKMLMKITDLRSISAKGAERVITLKMEIPGSMPPLIQEMLENSEGLDTLSGQPGGGGRDGGGLAPPPGSCSPSLSPSSNRSSPATHSP
notes: domain: LexA DBD;domain: LBD
On to B3, for which the binding result is recorded as “no binding”.

B4: LexA-human ERα-LBD (LexA fusion of the ligand binding domain of hERα) (receptor, UniProt P0A7C2 1-202, looked up)
chain: MKALTARQQEVFDLIRDHISQTGMPPTRAEIAQRLGFRSPNAAEEHLKALARKGVIEIVSGASRGIRLLQEEEEGLPLVGRVAAGEPLLAQQHIEGHYQVDPSLFKPNADFLLRVSGMSMKDIGIMDGDLLAVHKTQDVRNGQVVVARIDDEVTVKRLKKQGNKVELLPENSEFKPIVVDLRQQSFTIEGLAVGVIRNGDWLSAGDMRAANLWPSPLMIKRSKKNSLALSLTADQMVSALLDAEPPILYSEYDPTRPFSEASMMGLLTNLADRELVHMINWAKRVPGFVDLTLHDQVHLLECAWLEILMIGLVWRSMEHPGKLLFAPNLLLDRNQGKCVEGMVEIFDMLLATSSRFRMMNLQGEEFVCLKSIILLNSGVYTFLSSTLKSLEEKDHIHRVLDKITDTLIHLMAKAGLTLQQQHQRLAQLLLILSHIRHMSNKGMEHLYSMKCKNVVPLYDLLLEMLDAHRLHAPTSRGGASVEETDQSHLATAGSTSSHSLQKYYITGEAEGFPATV
notes: domain: LexA DBD;domain: LBD; also called hERa; ERa
As to B4, the binding result was “no binding”.

B5: LexA-hGR LBD (LexA fusion of the ligand binding domain of hGR) (receptor, UniProt P0A7C2 1-202, looked up)
chain: MKALTARQQEVFDLIRDHISQTGMPPTRAEIAQRLGFRSPNAAEEHLKALARKGVIEIVSGASRGIRLLQEEEEGLPLVGRVAAGEPLLAQQHIEGHYQVDPSLFKPNADFLLRVSGMSMKDIGIMDGDLLAVHKTQDVRNGQVVVARIDDEVTVKRLKKQGNKVELLPENSEFKPIVVDLRQQSFTIEGLAVGVIRNGDWLGMNLEARKTKKKIKGIQQATTGVSQETSENPGNKTIVPATLPQLTPTLVSLLEVIEPEVLYAGYDSSVPDSTWRIMTTLNMLGGRQVIAAVKWAKAIPGFRNLHLDDQMTLLQYSWMFLMAFALGWRSYRQSSANLLCFAPDLIINEQRMTLPCMYDQCKHMLYVSSELHRLQVSYEEYLCMKTLLLLSSVPKDGLKSQELFDEIRMTYIKELGKAIVKREGNSSQNWQRFYQLTKLLDSMHEVVENLLNYCFQTFLDKTMSIEFPEMLAEIITNQIPKYSNGNIKKLLFHQK
notes: domain: LexA DBD;domain: LBD
Take B5: the binding result is “no binding”.

B6: LexA-hRXRα LBD (LexA fusion of the ligand binding domain of hRXRα) (receptor, UniProt P0A7C2 1-202, looked up)
chain: MKALTARQQEVFDLIRDHISQTGMPPTRAEIAQRLGFRSPNAAEEHLKALARKGVIEIVSGASRGIRLLQEEEEGLPLVGRVAAGEPLLAQQHIEGHYQVDPSLFKPNADFLLRVSGMSMKDIGIMDGDLLAVHKTQDVRNGQVVVARIDDEVTVKRLKKQGNKVELLPENSEFKPIVVDLRQQSFTIEGLAVGVIRNGDWLMGMKREAVQEERQRGKDRNENEVESTSSANEDMPVERILEAELAVEPKTETYVEANMGLNPSSPNDPVTNICQAADKQLFTLVEWAKRIPHFSELPLDDQVILLRAGWNELLIASFSHRSIAVKDGILLATGLHVHRNSAHSAGVGAIFDRVLTELVSKMRDMQMDKTELGCLRAIVLFNPDSKGLSNPAEVEALREKVYASLEAYCKHKYPEQPGRFAKLLLRLPALRSIGLKCLEHLFFFKLIGDTPIDTFLMEMLEAPHQMT
notes: domain: LexA DBD;domain: LBD
As to B6, the binding result is “no binding”.

Source of the values: patent US20040175720A1 (NEW YORK UNIVERSITY, published 2004).
